# Where no end group is shown, it is not given here.
# Tests used:
# [1] = biological target: T1, IGF binding protein-3 (IGFBP-3) (human, UniProt P17936 28-291, 125-I-labeled when used as probe in the dot blot); experiment: dot blot on nitrocellulose probed with 125-I-labeled IGFBP-3, autoradiography and densitometry (FIG. 17A)
# T1 construct: also called hIGFBP-3; non glycosylated hIGFBP-3
# [2] = biological target: T1, IGF binding protein-3 (IGFBP-3); experiment: dot blot of peptides probed with 125-I-labeled IGFBP-3 (FIG. 17A)
# T1 sequence (P17936 28-291 limits assumed): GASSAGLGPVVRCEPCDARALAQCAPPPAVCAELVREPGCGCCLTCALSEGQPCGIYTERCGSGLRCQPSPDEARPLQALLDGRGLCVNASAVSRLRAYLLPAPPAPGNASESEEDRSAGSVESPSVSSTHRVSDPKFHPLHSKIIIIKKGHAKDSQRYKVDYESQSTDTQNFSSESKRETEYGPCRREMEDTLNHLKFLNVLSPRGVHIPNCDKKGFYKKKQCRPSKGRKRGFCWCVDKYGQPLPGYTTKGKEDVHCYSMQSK
Binder,binding result [1],binding result [2]
MAPRGASCLLLLTSEIDLPVKRRA (also called F6A HN; F6A-HN) [Humanin analog F6A],no binding (tested: 50 ng of peptide blotted),–
MAPRGFSCLLLLTSEIDLPVKRRA (50 ng was spotted on nitrocellulose in the dot blot; also called HN; human humanin) [Humanin],–,binds
"MAPRGASCLLLLTGEIDLPVKRRA (not fully specified, also called F6AHNG; HN) [Humanin analog HNGF6A]",no binding (tested: 50 ng of peptide blotted),–

# Reference: patent US20100204099A1 (ALBERT EINSTEIN COLLEGE OF MEDICINE OF YESHIVA UNIVERSITY, published 2010)
